The source of these data is patent publication US6649392 (US Dept. of Health and Human Services, dated 2003).

Where only a bound is given, the exact number is not on record here.

B1: native Onc purified from the eggs of Rana pipiens (enzyme, UniProt P22069 1-104, looked up)
chain: QDWLTFQKKHITNTRDVDCDNIMSTNLFHCKDKNTFIYSRPEPVKAICKGIIASKNVLTTSEFYLSDCNVTSRPCKYKLKKSTNKFCVTCENQAPVHFVGVGSC
modifications: pyroglutamyl residue at position 1 (amino terminus)
notes: mature; also called nOnc; ONCONASE
B2: recombinant Met(-1) human pancreatic ribonuclease (enzyme)
chain: MKESRAKKFQRQHMDSDSSPSSSSTYCNQMMRRRNMTQGRCKPVNTFVHEPLVDVQNVCFQEKVTCKNGQGNCYKSNSSMHITDCRLTNGSRYPNCAYRTSPKERHIIVACEGSPYVPVHFDASVEDST
notes: mature; also called rhRNase; hRNase
B3: placental ribonuclease inhibitor (other, UniProt P13489 2-461, looked up)
chain: SLDIQSLDIQCEELSDARWAELLPLLQQCQVVRLDDCGLTEARCKDISSALRVNPALAELNLRSNELGDVGVHCVLQGLQTPSCKIQKLSLQNCCLTGAGCGVLSSTLRTLPTLQELHLSDNLLGDAGLQLLCEGLLDPQCRLEKLQLEYCSLSAASCEPLASVLRAKPDFKELTVSNNDINEAGVRVLCQGLKDSPCQLEALKLESCGVTSDNCRDLCGIVASKASLRELALGSNKLGDVGMAELCPGLLHPSSRLRTLWIWECGITAKGCGDLCRVLRAKESLKELSLAGNELGDEGARLLCETLLEPGCQLESLWVKSCSFTAACCSHFSSVLAQNRFLLELQISNNRLEDAGVRELCQGLGQPGSVLRVLWLADCDVSDSSCSSLAATLLANHSLRELDLSNNCLGDAGILQLVESVRQPGCLLEQLVLYDIYWSEEMEDRLQALEKDKPSLRVIS
notes: also called PRI

In test [1] the target is B3. Nature of the test: steady-state inhibition of RNase activity by PRI. The procedure: (§1) Steady-state inhibition constants (K_i) for PRI interaction were determined using a modification of a method (Vincentini et al., Biochemistry 29:8827–8834 (1990)) to analyse competitive slow tight-binding inhibition mechanisms. Steady-state rates of product formation were calculated by a spectrophotometric method. […] The reaction was started by the addition of enzyme (0.01 to 2 nM depending on the assayed protein) and followed during 90–120 min. Several inhibitor concentrations were distributed below and above the enzyme concentration. […] The amount of product formed was calculated by following the absorbance decrease at 286 nm for CpA (change in ε=521 M^-1) and at 280 nm for UpG (change in ε=757 M^-1 cm^-1). The calculated steady-state rates for each inhibitor concentration were fitted by nonlinear regression to the equation for tight binding inhibition as described by Vicentini et al. (1990). In each case $I50$, defined as the total inhibitor concentration required to give 50% inhibition, were deduced from the V_s-I Dixon plot and compared to the calculated K_i, considering in each case the total enzyme concentration.
(§2) [a]K_i values were calculated from the observed steady-state rates (v_s) at different inhibitor concentrations, by fitting the data to the tight-binding non-linear regression equation.

Test [2] concerns the target rOnc1-9-hRNase12-127 hybrid (Rana pipiens; human) (UniProt P07998). Nature of the test: steady-state tight-binding inhibition of RNase activity (CpA substrate, spectrophotometric); row rOnc1-9-hRNase12-127.
The target in test [3] is T1, RNase A (bovine pancreatic) (bovine, UniProt P61823 27-150).
T1 construct: also called bovine RNase A
T1 sequence (looked up): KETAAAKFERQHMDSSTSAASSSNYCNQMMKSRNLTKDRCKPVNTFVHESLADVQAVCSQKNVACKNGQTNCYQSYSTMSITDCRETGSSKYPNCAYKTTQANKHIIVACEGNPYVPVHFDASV
Nature of the test: steady-state tight-binding inhibition of RNase activity (CpA substrate, spectrophotometric); row RNaseA. The protocol:
as §1, §2

Test [4] concerns the target rhRNase1-11-rOnc10-104 hybrid (human; Rana pipiens) (UniProt P07998). The test is described as follows: approximate Ki calculated from I50, inhibition of RNase activity (UpG substrate, spectrophotometric); row rhRNase1-11-Onc10-104.
The target of test [5] is B2. The test is described as follows: steady-state tight-binding inhibition of RNase activity (CpA substrate, spectrophotometric); row rhRNase. The procedure: as §1, §2
Test [6] deals with rhRNase1-11-rOnc10-104 hybrid (human; Rana pipiens) (UniProt P07998). Nature of the test: approximate Ki from I50, inhibition of RNase activity by PRI.
Test [7] deals with B1. The test is described as follows: approximate Ki calculated from I50, inhibition of RNase activity (UpG substrate, spectrophotometric); row nOnc. The procedure:
as §1, §2

For test [8], the target named is rOnc1-9-hRNase12-127 hybrid (Rana pipiens; human) (UniProt P07998). Nature of the test: steady-state inhibition of RNase activity by PRI.

As a reminder, the Ki is the equilibrium dissociation constant of an inhibitor or competing ligand from its target.

In the case of B1, in test [1], the binding result was “binds”.
Same read-out and setting: in the case of B2 it was “binds”.
As to B3, the inhibition constant (Ki) was 0.0056 nM in test [2]; 0.058 pM in test [3]; > 400 nM in test [4]; 0.0002 nM in test [5]; ≥ 100000 nM in test [7]. This molecule gave a fold increase of PRI affinity in relation to Onc in test [6] of 3 fold. The molecule further registered a fold increase of Ki in relation to rhRNase in test [8] of 30 fold.
